Assay results reported in patent publication US20220177587A1, “METHODS AND USES OF VARIANT CD80 FUSION PROTEINS AND RELATED CONSTRUCTS” (Alpine Immune Sciences, Inc., priority 2018, published 2022).

How the values were obtained:
[1] = molecular target: PD-L1 (human) (UniProt Q9NZQ7); test: flow cytometry, CHO cells expressing huPD-L1
Target sequence in this assay (Q9NZQ7 19-290): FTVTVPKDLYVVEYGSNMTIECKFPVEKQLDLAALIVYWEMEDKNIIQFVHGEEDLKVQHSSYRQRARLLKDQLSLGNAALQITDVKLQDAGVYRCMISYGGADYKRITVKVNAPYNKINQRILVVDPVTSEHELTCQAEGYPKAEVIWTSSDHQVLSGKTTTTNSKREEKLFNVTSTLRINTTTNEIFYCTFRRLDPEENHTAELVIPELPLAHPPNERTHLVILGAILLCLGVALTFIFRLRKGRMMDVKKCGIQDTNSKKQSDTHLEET

[2] = molecular target: human CTLA-4 (human) (UniProt P16410); test: flow cytometry, CHO cells expressing huCTLA4
[3] = molecular target: PD-L1 (human) (UniProt Q9NZQ7); test: flow cytometry, CHO cells expressing huPD-L1; remark: listed apart in the source
Target sequence in this assay (Q9NZQ7 19-290): as above

[4] = molecular target: human CTLA-4 (human) (UniProt P16410); test: flow cytometry, CHO cells expressing huCTLA-4
[5] = molecular target: CD28 (human) (UniProt P10747); test: flow cytometry, Jurkat/IL2 reporter cells (CD28)
[6] = molecular target: CD28 (human) (UniProt P10747); test: flow cytometry, Jurkat/IL2 reporter cells (endogenous CD28)
[7] = molecular target: CD28 (human) (UniProt P10747)
[8] = molecular target: PD-L1 (human) (UniProt Q9NZQ7)
Target sequence in this assay (Q9NZQ7 19-290 limits assumed): as the sequence (Q9NZQ7 19-290) above

[9] = molecular target: CD28 (human) (UniProt P10747); test: flow cytometry, Jurkat cells (CD28)
[10] = molecular target: human CTLA-4 (human) (UniProt P16410); test: flow cytometry, CHO cells stably expressing CTLA4
[11] = molecular target: PD-L1 (human) (UniProt Q9NZQ7); test: flow cytometry, CHO cells stably expressing PD-L1
Target sequence in this assay (Q9NZQ7 19-290): as above

[12] = molecular target: PD-L1 (human) (UniProt Q9NZQ7); test: flow cytometry, MFI on PD-L1 cells over MFI on CD28 cells
Target sequence in this assay (Q9NZQ7 19-290): as above

Chain of human CTLA-4 (human) (P16410 36-223): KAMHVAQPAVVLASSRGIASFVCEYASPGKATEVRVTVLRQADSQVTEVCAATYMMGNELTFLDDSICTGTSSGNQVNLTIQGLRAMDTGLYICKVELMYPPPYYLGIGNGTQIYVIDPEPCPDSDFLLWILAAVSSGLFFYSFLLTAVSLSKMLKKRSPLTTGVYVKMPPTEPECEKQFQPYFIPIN

Row | MFI at 33.3 nM [1] [MFI] | MFI at 33.3 nM [2] [MFI] | MFI at 33.3 nM [3] [MFI] | MFI at 33.3 nM [4] [MFI] | MFI at 33.3 nM [5] [MFI] | MFI at 33.3 nM [6] [MFI] | IL-2 luciferase reporter, fold increase over WT CD80-IgV-Fc at 5.0 nM [7] [fold] | IL-2 luciferase reporter, fold increase over WT CD80-IgV-Fc at 5.0 nM [8] [fold] | Fold change to WT CD80 [9] [fold] | MFI at 33.3 nM [9] [MFI] | Fold change to WT CD80 [10] [fold] | MFI at 33.3 nM [10] [MFI] | Fold change to WT CD80 [11] [fold] | MFI at 33.3 nM [11] [MFI] | Ratio of PDL1:CD28 [12] | Substance
1 | 33200 | 336000 | 6100 | 12900 | 46.3 | 646 | – | – | – | – | – | – | – | – | – | variant CD80 IgV-Fc E35D/M47L/L85Q (Fc fusion)
2 | 77500 | 18100 | – | – | – | 305 | – | – | – | – | – | – | – | – | – | variant CD80 IgV-Fc E35D/M47V/T62A/A71G/V83A/Y87H/L97M (Fc fusion)
3 | – | – | – | – | – | – | 2.42 | 2.42 | 8.6 | 379 | 14.2 | 19400 | 387 | 16900 | 44.6 | variant CD80 IgV-Fc H18Y/A26E/E35D/M47L/A71G (Fc fusion)
4 | – | – | – | – | – | – | 2.37 | 2.37 | 31.4 | 1380 | 14.5 | 19700 | 291 | 12700 | 9.2 | variant CD80 IgV-Fc H18Y/A26E/E35D/M47L/D90G (Fc fusion)
5 | – | – | – | – | – | – | 2.29 | 2.29 | 14.3 | 626 | 14.7 | 20000 | 566 | 24700 | 39.4 | variant CD80 IgV-Fc H18Y/A26E/E35D/M47L/V68M (Fc fusion)
6 | – | – | – | – | – | – | 2.29 | 2.29 | 60.9 | 2680 | 18.3 | 24900 | 578 | 25200 | 9.4 | variant CD80 IgV-Fc H18Y/A26E/E35D/M47L/V68M/D90G (Fc fusion)
7 | – | – | – | – | – | – | 2.46 | 2.46 | 9 | 394 | 14.3 | 19400 | 630 | 27500 | 69.7 | variant CD80 IgV-Fc H18Y/A26E/E35D/V68M/A71G (Fc fusion)
8 | – | – | – | – | – | – | 2.41 | 2.41 | 40 | 1760 | 17.2 | 23400 | 658 | 28700 | 16.3 | variant CD80 IgV-Fc H18Y/A26E/E35D/V68M/A71G/D90G (Fc fusion)
9 | – | – | – | – | – | – | 2.5 | 2.5 | 61.1 | 2680 | 13.5 | 18300 | 639 | 27900 | 10.4 | variant CD80 IgV-Fc H18Y/A26E/V68M/A71G/D90G (Fc fusion)
10 | 36100 | – | – | – | – | 282 | – | – | – | – | – | – | – | – | – | variant CD80 IgV-Fc Q27H/E35D/M47L/L85Q/R94Q/E95K (Fc fusion)
11 | 47900 | 47600 | – | – | – | – | – | – | – | – | – | – | – | – | – | variant CD80 IgV-Fc Q33L/E35D/M47V (Fc fusion)
12 | 62100 | 28900 | – | – | – | – | – | – | – | – | – | – | – | – | – | variant CD80 IgV-Fc Q33L/E35D/M47V/T79A (Fc fusion)
13 | 44400 | – | – | – | – | 258 | – | – | – | – | – | – | – | – | – | variant CD80 IgV-Fc Q33R/E35D/K37E/M47V/L85Q (Fc fusion)
